Source: patent US20250382352A1 (SCG CELL THERAPY PTE, published 2025)

T1: HBsAg recombinant protein (hepatitis B virus)
T1 chain: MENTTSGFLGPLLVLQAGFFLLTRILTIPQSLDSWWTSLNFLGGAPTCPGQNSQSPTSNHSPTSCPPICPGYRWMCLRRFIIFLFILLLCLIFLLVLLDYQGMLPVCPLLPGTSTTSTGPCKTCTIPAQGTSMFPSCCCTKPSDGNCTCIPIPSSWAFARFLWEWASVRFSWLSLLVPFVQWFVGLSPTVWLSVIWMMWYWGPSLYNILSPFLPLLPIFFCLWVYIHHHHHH

T2: cynomolgus CD3ε recombinant protein (cynomolgus, UniProt Q95LI5 22-117)
T2 construct: also called cynoCD3ε; cynomolgus CD38 [sic]
T2 sequence (looked up): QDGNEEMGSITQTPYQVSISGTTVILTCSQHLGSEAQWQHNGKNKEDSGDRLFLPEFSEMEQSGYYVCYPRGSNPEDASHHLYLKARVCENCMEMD


What was measured:
[1] = target: T3, rhesus CD3ε recombinant protein (rhesus); test: ELISA, recombinant protein
T3 construct: also called rhesus CD38 [sic]
Method: (§1) Anti-HBsAg/anti-CD3 bispecific antibodies generated in Example 1 are analyzed by standard ELISA techniques for their binding properties to HBsAg, human CD3E, and rhesus CD3ε recombinant protein, respectively.

[2] = target: T1, HBsAg recombinant protein; test: ELISA, recombinant protein
Method: as §1

[3] = target: T4, human CD3ε recombinant protein (human, UniProt P07766 23-126); test: ELISA, recombinant protein
T4 construct: also called human CD3E; huCD3ε
T4 sequence (P07766 23-126 limits assumed): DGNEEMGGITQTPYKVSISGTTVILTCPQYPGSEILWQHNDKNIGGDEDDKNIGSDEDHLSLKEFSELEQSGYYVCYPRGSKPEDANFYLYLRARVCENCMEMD
Method: as §1

[4] = target: T5, CD3ε expressed on the surface of Jurkat cells (human, UniProt P07766 23-207); test: flow cytometry on Jurkat cells (panel title: Binding with CD3+ T cell), MFI
T5 construct: whole, on cells; also called CD3 expressed on human leukemic T cell line Jurkat; hCD3ε
T5 sequence (P07766 23-207): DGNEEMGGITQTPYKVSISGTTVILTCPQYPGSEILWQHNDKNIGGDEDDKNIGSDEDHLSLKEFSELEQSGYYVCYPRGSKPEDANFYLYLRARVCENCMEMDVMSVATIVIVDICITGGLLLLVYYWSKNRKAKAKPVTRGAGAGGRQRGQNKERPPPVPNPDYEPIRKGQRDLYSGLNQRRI

[5] = target: T1, HBsAg recombinant protein; test: SPR (Biacore), bsAb on protein A chip, antigen in flow
Method: (§2) Binding affinity of anti-HBsAg/anti-CD3 constructs to HBsAg and human/cynomolgus CD3ε is characterized by SPR using Biacore […] (GE Healthcare). Specifically, the anti-HBsAg/anti-CD3 bispecific antibodies were immobilized on protein A chip at a flow rate of 10 μL/min, and gradient dilution of huCD3ε, cynoCD3ε, or HBsAg antigen was used as the mobile phase. The binding condition was 10 μL/min×180 s. The dissociation condition was 10 μL/min×400 s and the regeneration conditions were 30 μL/min×30 s at pH1.5 Gly. FIG. 10 and FIG. 11 show the kinetic curves of bsAb-2-5 and bsAb-2-6 constructs bind to human and cynomolgus CD3 recombinant proteins, respectively. FIG. 12 show the kinetic curves of bsAb2-5 and bsAb2-6 constructs bind to HBsAg.

[6] = target: T4, human CD3ε recombinant protein; test: as above
Method: as §2

[7] = target: T2, cynomolgus CD3ε recombinant protein; test: as above
Method: as §2

Row | Binder | EC50 [1] | EC50 [2] | EC50 [3] | EC50 (read off the curve) [4] | Kd [5] | Kd [6] | Kd [7]
1 | BsAb2-6-015 (bispecific antibody, also called VH3VL5) heavy: not shown light: QTVVTQEPSFSVSPGGTVTLTCRSSTGAVTTSNYANWVQQTPGQAPRGLIGGTNKRAPGVPDRFSGSILGDKAALTITGAQADDESDYYCALWYSNLWVFGGGTKLTVLRTVAAPSVFIFPPSDEQLKSGTASVVCLLNNFYPREAKVQWKVDNALQSGNSQESVTEQDSKDSTYSLSSTLTLSKADYEKHKVYACEVTHQGLSSPVTKSFNRGEC | 0.18 nM | 0.33 nM | 0.19 nM | – | – | – | –
2 | BsAb2-6-020 (bispecific antibody, also called VH4VL5) heavy: not shown light: QTVVTQEPSFSVSPGGTVTLTCRSSTGAVTTSNYANWVQQTPGQAPRGLIGGTNKRAPGVPDRFSGSILGDKAALTITGAQADDESDYYCALWYSNLWVFGGGTKLTVLRTVAAPSVFIFPPSDEQLKSGTASVVCLLNNFYPREAKVQWKVDNALQSGNSQESVTEQDSKDSTYSLSSTLTLSKADYEKHKVYACEVTHQGLSSPVTKSFNRGEC | 0.12 nM | 0.56 nM | 0.32 nM | – | – | – | –
3 | BsAb2-5 (C8 scFv fused to the N-terminal of the heavy chain of the murine anti-CD3 mAb) (bispecific antibody) chain 1: not shown chain 2: QAVVTQESALTTSPGETVTLTCRSSTGAVTTSNYANWVQEKPDHLFTGLIGGTNKRAPGVPARFSGSLIGDKAALTITGAQTEDEAIYFCALWYSNLWVFGGGTKLTVLRTVAAPSVFIFPPSDEQLKSGTASVVCLLNNFYPREAKVQWKVDNALQSGNSQESVTEQDSKDSTYSLSSTLTLSKADYEKHKVYACEVTHQGLSSPVTKSFNRGEC | – | – | – | ~0.05 nM | – | – | –
4 | BsAb2-6-001 (bispecific antibody, also called VH1VL1; SCG2-6-001) heavy: not shown light: QTVVTQEPSLTVSPGGTVTLTCRSSTGAVTTSNYANWVQQKPGQAPRALIGGTNKRAPWTPARFSGSLLGDKAALTLSGVQPEDEAEYYCALWYSNLWVFGGGTKLTVLRTVAAPSVFIFPPSDEQLKSGTASVVCLLNNFYPREAKVQWKVDNALQSGNSQESVTEQDSKDSTYSLSSTLTLSKADYEKHKVYACEVTHQGLSSPVTKSFNRGEC | 0.29 nM | 0.5 nM | – | – | 0.0491 nM | – | –
5 | BsAb2-6-011 (bispecific antibody, also called VH3VL1; SCG2-6-011) heavy: not shown light: QTVVTQEPSLTVSPGGTVTLTCRSSTGAVTTSNYANWVQQKPGQAPRALIGGTNKRAPWTPARFSGSLLGDKAALTLSGVQPEDEAEYYCALWYSNLWVFGGGTKLTVLRTVAAPSVFIFPPSDEQLKSGTASVVCLLNNFYPREAKVQWKVDNALQSGNSQESVTEQDSKDSTYSLSSTLTLSKADYEKHKVYACEVTHQGLSSPVTKSFNRGEC | 0.34 nM | 0.44 nM | 0.66 nM | – | 0.375 nM | 29.2 nM | –
6 | BsAb2-6-016 (bispecific antibody, also called VH4VL1; SCG2-6-016) heavy: not shown light: QTVVTQEPSLTVSPGGTVTLTCRSSTGAVTTSNYANWVQQKPGQAPRALIGGTNKRAPWTPARFSGSLLGDKAALTLSGVQPEDEAEYYCALWYSNLWVFGGGTKLTVLRTVAAPSVFIFPPSDEQLKSGTASVVCLLNNFYPREAKVQWKVDNALQSGNSQESVTEQDSKDSTYSLSSTLTLSKADYEKHKVYACEVTHQGLSSPVTKSFNRGEC | 0.36 nM | 0.71 nM | 0.8 nM | – | 0.054 nM | 35.3 nM | 36 nM
7 | BsAb2-6-017 (bispecific antibody, also called VH4VL2; SCG2-6-017) heavy: not shown light: QTVVTQEPSLTVSPGGTVTLTCRSSTGAVTTSNYANWVQQKPGQAPRGLIGGTNKRAPGTPARFSGSLLGDKAALTLSGVQPEDEAEYYCALWYSNLWVFGGGTKLTVLRTVAAPSVFIFPPSDEQLKSGTASVVCLLNNFYPREAKVQWKVDNALQSGNSQESVTEQDSKDSTYSLSSTLTLSKADYEKHKVYACEVTHQGLSSPVTKSFNRGEC | 0.15 nM | 0.6 nM | 0.4 nM | – | 0.0321 nM | 0.851 nM | 0.737 nM
8 | BsAb2-6-006 (bispecific antibody, also called VH2VL1; SCG2-6-006) heavy: not shown light: QTVVTQEPSLTVSPGGTVTLTCRSSTGAVTTSNYANWVQQKPGQAPRALIGGTNKRAPWTPARFSGSLLGDKAALTLSGVQPEDEAEYYCALWYSNLWVFGGGTKLTVLRTVAAPSVFIFPPSDEQLKSGTASVVCLLNNFYPREAKVQWKVDNALQSGNSQESVTEQDSKDSTYSLSSTLTLSKADYEKHKVYACEVTHQGLSSPVTKSFNRGEC | 0.76 nM | 0.31 nM | – | – | 0.00116 nM | – | 9.23 nM
9 | BsAb2-6-026 (bispecific antibody, also called VH6VL1; SCG2-6-026) heavy: not shown light: QTVVTQEPSLTVSPGGTVTLTCRSSTGAVTTSNYANWVQQKPGQAPRALIGGTNKRAPWTPARFSGSLLGDKAALTLSGVQPEDEAEYYCALWYSNLWVFGGGTKLTVLRTVAAPSVFIFPPSDEQLKSGTASVVCLLNNFYPREAKVQWKVDNALQSGNSQESVTEQDSKDSTYSLSSTLTLSKADYEKHKVYACEVTHQGLSSPVTKSFNRGEC | 0.63 nM | 0.69 nM | – | – | 0.623 nM | – | 97.4 nM
10 | BsAb2-5-011 (bispecific antibody, also called VH3VL1; SCG2-5-011) heavy: not shown light: QTVVTQEPSLTVSPGGTVTLTCRSSTGAVTTSNYANWVQQKPGQAPRALIGGTNKRAPWTPARFSGSLLGDKAALTLSGVQPEDEAEYYCALWYSNLWVFGGGTKLTVLRTVAAPSVFIFPPSDEQLKSGTASVVCLLNNFYPREAKVQWKVDNALQSGNSQESVTEQDSKDSTYSLSSTLTLSKADYEKHKVYACEVTHQGLSSPVTKSFNRGEC | 1.99 nM | 0.2 nM | 1.85 nM | – | 0.0932 nM | 12.4 nM | –
11 | BsAb2-5-013 (bispecific antibody, also called VH3VL3) heavy: not shown light: QAVVTQEPSLTVSPGGTVTLTCRSSTGAVTTSNYANWVQQKPGQAPRGLIGGTNKRAPGTPARFSGSLLGDKAALTLSGVQPEDEAEYFCALWYSNLWVFGGGTKLTVLRTVAAPSVFIFPPSDEQLKSGTASVVCLLNNFYPREAKVQWKVDNALQSGNSQESVTEQDSKDSTYSLSSTLTLSKADYEKHKVYACEVTHQGLSSPVTKSFNRGEC | 0.26 nM | 0.17 nM | 0.33 nM | – | – | – | –
12 | BsAb2-6-018 (bispecific antibody, also called VH4VL3) heavy: not shown light: QAVVTQEPSLTVSPGGTVTLTCRSSTGAVTTSNYANWVQQKPGQAPRGLIGGTNKRAPGTPARFSGSLLGDKAALTLSGVQPEDEAEYFCALWYSNLWVFGGGTKLTVLRTVAAPSVFIFPPSDEQLKSGTASVVCLLNNFYPREAKVQWKVDNALQSGNSQESVTEQDSKDSTYSLSSTLTLSKADYEKHKVYACEVTHQGLSSPVTKSFNRGEC | 0.16 nM | 0.73 nM | 0.5 nM | – | – | – | –
13 | BsAb2-5-018 (bispecific antibody, also called VH4VL3) heavy: not shown light: QAVVTQEPSLTVSPGGTVTLTCRSSTGAVTTSNYANWVQQKPGQAPRGLIGGTNKRAPGTPARFSGSLLGDKAALTLSGVQPEDEAEYFCALWYSNLWVFGGGTKLTVLRTVAAPSVFIFPPSDEQLKSGTASVVCLLNNFYPREAKVQWKVDNALQSGNSQESVTEQDSKDSTYSLSSTLTLSKADYEKHKVYACEVTHQGLSSPVTKSFNRGEC | 0.24 nM | 0.12 nM | 0.33 nM | – | – | – | –
14 | BsAb2-6-021 (bispecific antibody, also called VH5VL1; SCG2-6-021) heavy: not shown light: QTVVTQEPSLTVSPGGTVTLTCRSSTGAVTTSNYANWVQQKPGQAPRALIGGTNKRAPWTPARFSGSLLGDKAALTLSGVQPEDEAEYYCALWYSNLWVFGGGTKLTVLRTVAAPSVFIFPPSDEQLKSGTASVVCLLNNFYPREAKVQWKVDNALQSGNSQESVTEQDSKDSTYSLSSTLTLSKADYEKHKVYACEVTHQGLSSPVTKSFNRGEC | 0.83 nM | 0.8 nM | – | – | 0.348 nM | – | 148 nM
15 | BsAb2-5-012 (bispecific antibody, also called VH3VL2) heavy: not shown light: QTVVTQEPSLTVSPGGTVTLTCRSSTGAVTTSNYANWVQQKPGQAPRGLIGGTNKRAPGTPARFSGSLLGDKAALTLSGVQPEDEAEYYCALWYSNLWVFGGGTKLTVLRTVAAPSVFIFPPSDEQLKSGTASVVCLLNNFYPREAKVQWKVDNALQSGNSQESVTEQDSKDSTYSLSSTLTLSKADYEKHKVYACEVTHQGLSSPVTKSFNRGEC | 0.24 nM | 0.16 nM | 0.32 nM | – | – | – | –
